How the values were obtained:
[1] = target: T1, CD138 on the surface of U266 cells (CD138+ human lymphoblastic myeloma cell line) (human, UniProt P18827 23-310); experiment: flow cytometry on U266 cells at pH 6.0, MFI against antibody concentration (0.01-10 ug/mL)
T1 construct: whole, on cells; also called cell surface CD138; membrane CD138
T1 sequence (looked up): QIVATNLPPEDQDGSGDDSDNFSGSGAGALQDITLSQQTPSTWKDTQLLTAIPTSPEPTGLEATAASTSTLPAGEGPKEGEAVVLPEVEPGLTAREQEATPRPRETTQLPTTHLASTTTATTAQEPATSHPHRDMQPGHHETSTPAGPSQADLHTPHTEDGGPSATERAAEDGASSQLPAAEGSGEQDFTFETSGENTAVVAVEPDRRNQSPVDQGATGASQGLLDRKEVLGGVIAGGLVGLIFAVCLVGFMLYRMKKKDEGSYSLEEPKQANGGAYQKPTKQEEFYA
Experimental: (§1) Antibody binding to membrane CD138 was evaluated using the CD138+ human lymphoblastic myeloma cell line (U266) and quantified by flow cytometry. Cells were grown in RPMI1640 with 10% FBS. […] Cells were washed (1X) with same pH-matched buffer (and as throughout the experiment) followed by incubation with secondary (detection) goat anti-human Fab( Jackson Immuno Research) conjugated with Alexa Fluor-488 for 30 minutes also at either pH 6.0 or 7.4. Cells were washed once more and resuspended in matching pH buffer and evaluated by flow cytometry. Antibody cell binding was reported as geometric mean fluorescence intensity (MFI). Dose-response curves were generated using GraphPad Prism. Binding data were plotted using nonlinear regression analysis and a 4-parameter curve fit.

[2] = target: T2, Biotinylated recombinant soluble human CD138 extracellular domain (Sino Biological, Cat. 11429-H08H) (human, UniProt P18827 18-251, biotin (EZ-Link NHS-SS-PEG4 Biotin) on primary amino groups of lysines, protein:biotin 1:20); experiment: BLI (Octet): biotinylated CD138 (10 nM) on streptavidin tips, antibody 12.5 and 25 nM, pH 6.0, 1:1 fit
T2 construct: range 18-251; Bought reagent; The limits are printed as approximate; also called biotinylated CD138; recombinant CD138
T2 sequence (looked up): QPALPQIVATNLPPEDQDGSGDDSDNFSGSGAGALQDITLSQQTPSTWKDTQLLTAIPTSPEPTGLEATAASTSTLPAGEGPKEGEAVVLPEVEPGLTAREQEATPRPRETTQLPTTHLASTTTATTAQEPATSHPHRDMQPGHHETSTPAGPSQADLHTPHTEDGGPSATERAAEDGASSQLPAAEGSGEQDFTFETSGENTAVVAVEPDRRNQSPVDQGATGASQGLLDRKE
Experimental: (§2) Binding experiments were carried using assay buffer comprised of 100 mM Sodium Phosphate+ 150 mM NaCl + 0.02% Tween-20 and adjusted to target pH of 7.4, 6.0, 6.4, or 6 using appropriate ratios of monobasic and dibasic sodium phosphate buffer. 25 nM biotinylated CD138 was loaded onto Streptavidin capture Octet (SA) tips for 120 seconds (antigen loading step) followed by antibody binding for associated for 300 seconds (association step), and subsequently dissociation for 300 seconds (dissociation step). All steps were carried out at the respective target pH using the corresponding pH adjusted buffers.
(§3) Modifications to this protocol included lowering the loading concentration of biotinylated CD138 from 25 nM to 10 nM and varying the test antibody concentrations ranging from 25 nM down to 0.8 nM (as 2-fold dilutions). The rationale for doing so was to potentially reduce any target avidity effects while also looking at the analyte concentration dependency.
(§4) Data were analyzed for purposes of calculating approximate kinetic binding parameters and apparent binding affinities based on these rates. Data was fit assuming a 1:1 binding model.

[3] = target: T3, Recombinant soluble human CD138 extracellular domain (analyte in SPR) (human, UniProt P18827 23-254); experiment: SPR (Carterra LSA): antibody captured by anti-human IgG, CD138 as analyte, pH 7.4, 1:1 fit
T3 construct: extracellular domain; also called recombinant CD138 (the antigen)
T3 sequence (looked up): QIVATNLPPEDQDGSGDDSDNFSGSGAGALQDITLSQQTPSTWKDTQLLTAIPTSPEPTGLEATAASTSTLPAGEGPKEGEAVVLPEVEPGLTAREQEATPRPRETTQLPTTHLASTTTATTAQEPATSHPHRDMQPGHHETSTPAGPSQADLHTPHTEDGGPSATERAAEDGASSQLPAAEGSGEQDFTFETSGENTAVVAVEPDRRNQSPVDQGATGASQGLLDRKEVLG
Source text: (§5) This method as described, immobilizes the target (recombinant CD138) through biotinylation-streptavidin capture. Such a method may, in principle, lead to biases in binding due to either chemical modification of the capture ligand and/or avidity effects due to immobilization of this ligand on the biosensor. Moreover, this method depends on diffusion-based principles of dissociation leading to non-equilibrium binding states. Surface plasmon resonance is an orthogonal, commonly used method for determining binding kinetics and deriving affinity values based on these parameters. In this method, antibodies were directly coupled to the sensor chip and probed with several concentrations of recombinant CD138 (the antigen) varying from 100 nM to 41 nM. This evaluation was completed under two different pH conditions, i.e., pH 6.0 and pH […].
(§6) Antibody-CD138 binding was evaluated on a Carterra LSA high throughput SPR instrument. Binding experiments were carried out using binding buffer comprising 100 mM sodium phosphate, 150 mM NaCl and 0.05% Tween-20 buffer. Buffers were adjusted to target pH of 7.4 and 6.0, by use of sodium hydroxide or HCL, respectively. All steps were also carried out independently at these respective buffer pHs. Antibodies were captured on the SPR (CMDP) chip using an anti-human IgG covalently coupled to the CMDP chip based on standard protocols, as described by the instrument manufacturer, and to create a uniform lawn on the chip surface at a target 25 nM anti-CD138 antibody concentration. Binding to CD138 was achieved by uniformly passing binding analyte with increasing concentrations of CD138 (41 nM-100 nM) for 15 minutes and allowing dissociation for 20 minutes. Analyte was flowed over the chip at a rate of 2 milliliters/minute. Raw binding data were processed using kinetics data analysis software also provided by the manufacturer (Carterra) following as 2X background subtraction that used the first six injections of buffer blanks and the internal machine reference controls. Kinetic data was analysed using a global fit and assuming a 1:1 binding interaction. Further analysis of individual binding curves (sensorgrams) with best fits were used to refine the calculation of kinetic parameters.

[4] = target: T3, Recombinant soluble human CD138 …; experiment: SPR (Carterra LSA): antibody captured by anti-human IgG, CD138 as analyte, pH 6.0, 1:1 fit
Source text: as §5
Antibody-CD138 binding was evaluated on a Carterra LSA high throughput SPR instrument. Binding experiments were carried out using binding buffer comprising 100 mM sodium phosphate, 150 mM NaCl and 0.05% Tween-20 buffer. Buffers were adjusted to target pH of 7.4 and 6.0, by use of sodium hydroxide or HCL, respectively. All steps were also carried out independently at these respective buffer pHs. […] Kinetic data was analysed using a global fit and assuming a 1:1 binding interaction. […]

[5] = target: T1, CD138 on the surface of U266 cells …; experiment: flow cytometry on U266 cells at pH 6.5, MFI against antibody concentration (about 0.03-30 ug/mL)
[6] = target: T2, Biotinylated recombinant soluble human …; experiment: BLI (Octet): biotinylated CD138 (10 nM) on streptavidin tips, antibody 12.5 and 25 nM, pH 6.0, 1:1 fit; pH 6.0
Experimental: as §2, §3, §4

[7] = target: T1, CD138 on the surface of U266 cells …; experiment: flow cytometry on U266 cells at pH 6, MFI against antibody concentration (about 0.03-30 ug/mL)
Experimental: as §1
Binding was evaluated as described.

[8] = target: T3, Recombinant soluble human CD138 …; experiment: SPR (Carterra LSA): antibody captured by anti-human IgG, CD138 as analyte, pH 6.0, 1:1 fit; pH 6.0, SPR
Source text: as §5, §6

B1: Ab175 (antibody, V domains shown)
VH: EVQLVQSGAEVKKPGASVKVSCKASGYSFSSYYMHWVRQAPGQGLEWMGTIHPSDSTTNYNQKFQGRVTMTVDTSTRTAYMELSSLRSEDTAVYYCADFLYWGQGTTVTVSS
VL: DIVMTQTPLSLSVTPGQPASISCKSSKSLLYKDGHTYLNWFLQKPGQSPQLLIYVVSTRASGVPDRFSGSGSGTDFTLKISRVEAEDVGVYYCQQLVEYPYTFGQGTKLEIK
notes: also called mAb Ab175
EC50 (read off the curve) [1]: ~0.2 µg/mL

B2: Antibody Ab30 (antibody, V domains shown)
VH: EVQLVQSGAEVKKPGASVKVSCKASGYSFSSYYMHWVRQAPGQGLEWMGTIHPEDSTTNYNQKFQGRVTMTVDTSTRTAYMELSSLRSEDTAVYYCADFVYWGQGTTVTVSS
VL: DIVMTQTPLSLSVTPGQPASISCKSSKSLLYKDGKTYLNWFLQKPGQSPQLLIYVVSTRASGVPDRFSGSGSGTDFTLKISRVEAEDVGVYYCQQLVEYPYTFGQGTKLEIK
Kd [2]: 4.6 nM
koff [2]: 0.0034 s⁻¹
kon [2]: 720000 M⁻¹ s⁻¹

B3: Antibody Ab32 (antibody, V domains shown)
VH: EVQLVQSGAEVKKPGASVKVSCKASGYSFSSYYMHWVRQAPGQGLEWMGTIHPSDSTTNYNQKFQGRVTMTVDTSTRTAYMELSSLRSEDTAVYYCADFLYWGQGTTVTVSS
VL: DIVMTQTPLSLSVTPGQPASISCKSSKSLLYKDGKTYLNWFLQKPGQSPQLLIYVVSTRASGVPDRFSGSGSGTDFTLKISRVEAEDVGVYYCQQLVEYPYTFGQGTKLEIK
EC50 (read off the curve) [1]: ~1 µg/mL
Kd [2]: 6.4 nM
koff [2]: 0.0036 s⁻¹
kon [2]: 560000 M⁻¹ s⁻¹

B4: Antibody Ab71 (antibody, V domains shown)
VH: QVQLVQSGAEVKKPGASVKVSCKASGYSFSSYYMHWVRQAPGQGLEWMGDIHPSDSTTNYNQKFQGRVTMTVDTSTRTAYMELSSLRSEDTAVYYCANFVYWGQGTTVTVSS
VL: DIVMTQTPLSLSVTPGQPASISCKSSKSLLYKDGKTYLNWFLQKPGQSPQLLIYVVSTRASGVPDRFSGSGSGTDFTLKISRVEAEDVGVYYCQQLVEYPYTFGQGTKLEIK
Kd [3]: 21 nM
koff [3]: 0.00028 s⁻¹
kon [3]: 10000 M⁻¹ s⁻¹
Kd [2]: 0.98 nM
koff [2]: 0.0011 s⁻¹
kon [2]: 1.2e+06 M⁻¹ s⁻¹
koff [4]: 0.0018 s⁻¹
kon [4]: 300000 M⁻¹ s⁻¹

B5: Antibody Ab137 (antibody, V domains shown)
VH: QVQLVQSGAEVKKPGASVKVSCKASGYSFSSYYMHWVRQAPGQGLEWMGTIHPSDSTTNYNQKFQGRVTMTVDTSTRTAYMELSSLRSEDTAVYYCANFVYWGQGTTVTVSS
VL: DIVMTQTPLSLSVTPGQPASISCKSSKSLLYKDGKTYLNWFLQKPGQSPQLLIDVVSTRASGVPDRFSGSGSGTDFTLKISRVEAEDVGVYYCQQLVEYPYTFGQGTKLEIK
EC50 (read off the curve) [5]: ~0.7 µg/mL
Kd [6]: 2.9 nM
koff [6]: 0.003 s⁻¹
kon [6]: 1e+06 M⁻¹ s⁻¹
EC50 (read off the curve) [7]: ~0.4 µg/mL
Kd [8]: 16 nM
koff [8]: 0.0029 s⁻¹
kon [8]: 180000 M⁻¹ s⁻¹

B6: Antibody Ab17 (antibody, V domains shown)
VH: EVQLVQSGAEVKKPGASVKVSCKASGYSFSSYYMHWVRQAPGQGLEWMGTIHPSDSTTNYNQKFQGRVTMTVDTSTRTAYMELSSLRSEDTAVYYCADFVYWGQGTTVTVSS
VL: DIVMTQTPLSLSVTPGQPASISCKSSKSLLYKDGHTYLNWFLQKPGQSPQLLIYVVSTRASGVPDRFSGSGSGTDFTLKISRVEAEDVGVYYCQQLVEYPYTFGQGTKLEIK
notes: also called mAb 17; Mab 17
EC50 (read off the curve) [1]: ~0.5 µg/mL
Kd [6]: 6.2 nM
koff [6]: 0.0051 s⁻¹
kon [6]: 860000 M⁻¹ s⁻¹
Kd [8]: 16 nM
koff [8]: 0.0026 s⁻¹
kon [8]: 170000 M⁻¹ s⁻¹

B7: Antibody Ab28 (antibody, V domains shown)
VH: EVQLVQSGAEVKKPGASVKVSCKASGYSFSSYYMHWVRQAPGQGLEWMGTIYPGDSTTNYNQKFQGRVTMTVDTSTRTAYMELSSLRSEDTAVYYCADFVYWGQGTTVTVSS
VL: DIVMTQTPLSLSVTPGQPASISCKSSKSLLYKDGKTYLNWFLQKPGQSPQLLIYVVSTRASGVPDRFSGSGSGTDFTLKISRVEAEDVGVYYCQQLVEYPYTFGQGTKLEIK
notes: also called Mab 28
EC50 (read off the curve) [5]: ~0.8 µg/mL
EC50 (read off the curve) [1]: ~0.7 µg/mL
Kd [6]: 4 nM
koff [6]: 0.0045 s⁻¹
kon [6]: 1.2e+06 M⁻¹ s⁻¹
EC50 (read off the curve) [7]: ~0.5 µg/mL
Kd [8]: 12 nM
koff [8]: 0.0026 s⁻¹
kon [8]: 220000 M⁻¹ s⁻¹
